The values below come from US20110166075A1.

In this experiment the target is Mac-1 (CD11b/CD18) integrin receptor on primary mouse microglia (mouse) (UniProt P05555). Nature of the experiment: cell-based or functional assay.
Sequence of Mac-1 (CD11b/CD18) integrin receptor on primary mouse microglia (mouse) (P05555 17-1153, chain 1 of 2): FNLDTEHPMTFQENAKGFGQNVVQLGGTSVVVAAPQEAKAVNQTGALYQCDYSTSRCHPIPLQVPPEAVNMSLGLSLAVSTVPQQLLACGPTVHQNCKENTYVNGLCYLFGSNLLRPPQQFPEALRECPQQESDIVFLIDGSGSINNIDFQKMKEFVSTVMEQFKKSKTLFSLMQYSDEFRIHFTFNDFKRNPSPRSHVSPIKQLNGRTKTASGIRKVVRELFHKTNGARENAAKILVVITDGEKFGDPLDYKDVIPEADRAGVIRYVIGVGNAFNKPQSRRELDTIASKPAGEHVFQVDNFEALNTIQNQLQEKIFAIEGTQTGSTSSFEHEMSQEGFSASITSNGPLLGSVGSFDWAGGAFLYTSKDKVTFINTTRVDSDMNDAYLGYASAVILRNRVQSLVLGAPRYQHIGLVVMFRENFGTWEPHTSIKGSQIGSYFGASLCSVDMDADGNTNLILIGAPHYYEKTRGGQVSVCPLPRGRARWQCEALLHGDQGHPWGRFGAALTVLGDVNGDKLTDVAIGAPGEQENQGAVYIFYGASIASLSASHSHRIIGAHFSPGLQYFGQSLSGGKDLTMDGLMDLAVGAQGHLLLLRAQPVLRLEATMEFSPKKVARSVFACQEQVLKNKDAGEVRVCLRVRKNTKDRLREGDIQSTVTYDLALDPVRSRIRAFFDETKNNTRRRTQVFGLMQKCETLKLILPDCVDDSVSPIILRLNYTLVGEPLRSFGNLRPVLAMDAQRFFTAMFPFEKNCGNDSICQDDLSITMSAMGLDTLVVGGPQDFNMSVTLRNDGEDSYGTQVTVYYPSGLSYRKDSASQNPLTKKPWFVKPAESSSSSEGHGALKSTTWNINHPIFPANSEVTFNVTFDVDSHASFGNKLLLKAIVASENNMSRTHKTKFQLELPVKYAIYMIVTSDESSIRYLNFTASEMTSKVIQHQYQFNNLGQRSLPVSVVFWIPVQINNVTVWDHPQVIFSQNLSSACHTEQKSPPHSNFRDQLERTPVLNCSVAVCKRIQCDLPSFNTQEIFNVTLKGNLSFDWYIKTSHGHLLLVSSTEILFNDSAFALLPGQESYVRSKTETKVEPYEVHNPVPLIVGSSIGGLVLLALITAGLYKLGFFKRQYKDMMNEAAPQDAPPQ
Sequence of Mac-1 (CD11b/CD18) integrin receptor on primary mouse microglia (mouse) (P11835 24-771, chain 2 of 2, further chain): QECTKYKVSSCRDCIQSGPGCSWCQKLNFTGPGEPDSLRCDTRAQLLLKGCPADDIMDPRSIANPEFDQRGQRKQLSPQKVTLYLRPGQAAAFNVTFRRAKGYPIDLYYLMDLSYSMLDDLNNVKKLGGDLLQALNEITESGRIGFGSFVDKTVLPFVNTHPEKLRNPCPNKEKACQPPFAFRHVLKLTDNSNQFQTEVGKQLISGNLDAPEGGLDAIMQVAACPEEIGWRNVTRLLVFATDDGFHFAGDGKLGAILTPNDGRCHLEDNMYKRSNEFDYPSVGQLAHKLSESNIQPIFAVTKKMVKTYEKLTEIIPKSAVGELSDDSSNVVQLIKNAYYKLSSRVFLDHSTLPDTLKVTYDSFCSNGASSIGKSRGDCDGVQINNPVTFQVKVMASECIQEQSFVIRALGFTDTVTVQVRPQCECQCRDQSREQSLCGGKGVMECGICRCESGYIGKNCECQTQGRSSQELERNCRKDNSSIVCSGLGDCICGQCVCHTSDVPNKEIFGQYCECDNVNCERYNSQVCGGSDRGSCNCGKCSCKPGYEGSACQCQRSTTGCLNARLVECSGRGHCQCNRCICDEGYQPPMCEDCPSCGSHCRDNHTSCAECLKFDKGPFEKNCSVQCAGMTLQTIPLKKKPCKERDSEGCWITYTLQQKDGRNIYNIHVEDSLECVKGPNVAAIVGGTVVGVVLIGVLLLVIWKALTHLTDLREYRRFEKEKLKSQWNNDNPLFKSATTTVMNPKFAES

Regarding “M1/70, rat anti-CD11b neutralizing antibody”, the activated microglia (cells larger than 2,000 um^2), fibrinogen in the presence of M1/70 (% of activated microglia) was 18 and the phagocytosis of fibrinogen-treated microglia worked out at 40 % reduction.

For the substance “fibrinogen (Calbiochem), immobilized on tissue culture dishes (ligand)”, the Akt phosphorylation in microglia (Western blot) stood at 24 fold; the activated microglia (cells larger than 2,000 um^2), fibrinogen treated cells (% of activated microglia) came to 71; the activated microglia, fibrinogen treatment (% of activated microglia) amounted to 71; the active RhoA in microglia (GST-Rhotekin pull-down, Western blot) was determined as 1.9 fold.
